Where two headings read alike, the source gives them in different places.
T1: mAng2
T1 construct: also called mouse Ang2
T1 chain: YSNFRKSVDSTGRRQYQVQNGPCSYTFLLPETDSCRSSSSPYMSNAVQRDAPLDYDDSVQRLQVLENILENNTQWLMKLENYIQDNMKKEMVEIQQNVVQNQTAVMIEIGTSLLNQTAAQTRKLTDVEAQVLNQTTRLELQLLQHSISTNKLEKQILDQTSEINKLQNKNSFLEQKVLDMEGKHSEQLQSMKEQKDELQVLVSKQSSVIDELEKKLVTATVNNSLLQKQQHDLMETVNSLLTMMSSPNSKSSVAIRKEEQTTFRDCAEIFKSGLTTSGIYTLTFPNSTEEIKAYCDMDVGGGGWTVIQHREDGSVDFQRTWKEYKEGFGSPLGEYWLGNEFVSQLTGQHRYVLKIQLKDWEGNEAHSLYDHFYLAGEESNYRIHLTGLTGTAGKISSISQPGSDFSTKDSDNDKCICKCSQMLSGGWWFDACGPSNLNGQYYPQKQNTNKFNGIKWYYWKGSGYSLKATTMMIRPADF

T2: hAng2
T2 construct: also called human Ang2
T2 chain: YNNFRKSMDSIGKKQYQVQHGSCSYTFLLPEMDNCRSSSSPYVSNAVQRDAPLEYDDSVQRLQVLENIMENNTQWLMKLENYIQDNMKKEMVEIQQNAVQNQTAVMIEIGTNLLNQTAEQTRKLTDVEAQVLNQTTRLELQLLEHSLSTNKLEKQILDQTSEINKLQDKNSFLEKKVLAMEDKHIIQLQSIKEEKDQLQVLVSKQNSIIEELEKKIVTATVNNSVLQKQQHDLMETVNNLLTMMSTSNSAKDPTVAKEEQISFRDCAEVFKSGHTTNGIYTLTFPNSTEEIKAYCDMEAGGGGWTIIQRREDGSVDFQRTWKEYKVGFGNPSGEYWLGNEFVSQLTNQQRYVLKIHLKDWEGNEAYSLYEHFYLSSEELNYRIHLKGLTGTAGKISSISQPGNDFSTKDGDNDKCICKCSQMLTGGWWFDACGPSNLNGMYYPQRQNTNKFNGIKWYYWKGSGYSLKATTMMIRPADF

T3: recombinant mouse VEGF164 (mouse, UniProt Q00731-2 27-190)
T3 construct: biotinylated in the mVEGFR2 AlphaScreen; also called rmVEGF164; mVEGF164
T3 sequence (looked up): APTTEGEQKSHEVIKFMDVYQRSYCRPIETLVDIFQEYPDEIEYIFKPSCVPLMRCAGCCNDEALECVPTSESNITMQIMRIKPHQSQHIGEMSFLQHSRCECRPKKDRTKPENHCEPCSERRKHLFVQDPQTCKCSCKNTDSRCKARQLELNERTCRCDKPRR

T4: recombinant human VEGF121 (human, UniProt P15692-9 27-147)
T4 construct: also called rhVEGF121; hVEGF121
T4 sequence (looked up): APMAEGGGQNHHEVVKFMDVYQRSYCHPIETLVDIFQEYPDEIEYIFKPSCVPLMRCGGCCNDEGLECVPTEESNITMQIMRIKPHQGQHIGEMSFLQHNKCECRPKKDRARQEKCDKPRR

T5: human VEGF-C (human, UniProt P49767 103-227)
T5 construct: also called hVEGF-C
T5 sequence (looked up): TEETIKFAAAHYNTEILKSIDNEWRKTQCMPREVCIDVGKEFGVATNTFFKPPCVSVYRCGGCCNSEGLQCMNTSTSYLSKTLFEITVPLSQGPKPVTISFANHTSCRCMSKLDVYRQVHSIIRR

T6: human VEGF-B (human, UniProt P49765-2 22-188, limits assumed)
T6 construct: also called hVEGF-B
T6 sequence (looked up): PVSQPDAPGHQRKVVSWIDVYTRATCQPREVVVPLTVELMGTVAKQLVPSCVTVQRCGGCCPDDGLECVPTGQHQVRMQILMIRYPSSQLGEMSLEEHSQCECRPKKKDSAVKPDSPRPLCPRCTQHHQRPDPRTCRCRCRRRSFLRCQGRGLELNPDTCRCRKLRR

T7: human VEGF-D (human, UniProt O43915 93-201)
T7 construct: also called hVEGF-D
T7 sequence (looked up): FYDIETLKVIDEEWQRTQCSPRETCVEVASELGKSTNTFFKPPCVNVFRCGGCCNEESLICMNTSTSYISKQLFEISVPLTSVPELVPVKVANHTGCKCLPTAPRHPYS

T8: human PIGF (human, UniProt P49763-2 21-149, limits assumed)
T8 construct: also called hPIGF; PLGF
T8 sequence (looked up): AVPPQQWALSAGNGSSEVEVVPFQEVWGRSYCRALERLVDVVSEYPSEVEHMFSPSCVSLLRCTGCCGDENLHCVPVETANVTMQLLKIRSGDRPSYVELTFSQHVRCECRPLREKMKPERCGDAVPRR


Assays:
cAng2 = biological target: T9, cAng2 (cynomolgus monkey); assay: competition ELISA, blocking of cAng2 binding to cTie2
T9 construct: also called cyno Ang2

mAng2 [1] = biological target: T1, mAng2; assay: competition ELISA, blocking of mAng2 binding to mTie2
hAng2 [2] = biological target: T2, hAng2; assay: competition ELISA, blocking of hAng2 binding to hTie2
[3] = biological target: T10, recombinant human VEGF165 (human, UniProt P15692-4 27-191); assay: hVEGF165/hVEGFR1-Fc competition AlphaScreen
T10 construct: also called hVEGF165; rhVEGF165
Method: (§1) Finally, streptavidin donor beads (20 μg/ml) are added and after 1 hour of incubation in the dark, fluorescence is measured on the Envision microplate reader.

[4] = biological target: T10, recombinant human VEGF165; assay: hVEGF165/hVEGFR2-Fc competition AlphaScreen
Method: as §1

[5] = biological target: T10, recombinant human VEGF165; assay: ka1; SPR Biacore T100, hVEGF165 on chip, Two State Reaction model
Method: (§2) Samples are injected for 2 min and allowed to dissociate up to 20 min at a flow rate of 45 μI/min. In between sample injections, the chip surface is regenerated with 100 mM HCl. HBS-EP+(Hepes buffer pH7.4+EDTA) is used as running buffer. Binding curves are fitted using a Two State Reaction model by Biacore T100 Evaluation Software v2.0.1.
(§3) ^{(a)}Heterogeneous binding curve resulting in no 1:1 fit, curves are fitted using a Two State Reaction model by Biacore T100 Evaluation Software v2.0.1

VEGF = assay: cell-based or functional assay
[6] = biological target: T10, recombinant human VEGF165; assay: SPR Biacore T100, hVEGF165 on chip, Two State Reaction model
Method: as §2, §3

[7] = biological target: T10, recombinant human VEGF165; assay: kd1; SPR Biacore T100, hVEGF165 on chip, Two State Reaction model
Method: as §2, §3

[8] = biological target: T3, recombinant mouse VEGF164; assay: binding ELISA, coated rmVEGF164
Method: Cross-reactivity to mouse VEGF164 is determined using a binding ELISA. […] Wells are blocked with a casein solution (1% in PBS). […] A mouse VEGF164 reactive mAb is included as positive control.

[9] = biological target: T10, recombinant human VEGF165; assay: binding ELISA, coated rhVEGF165
[10] = biological target: T4, recombinant human VEGF121; assay: binding ELISA, coated rhVEGF121
Method: Binding to recombinant human VEGF121 is assessed via a solid phase binding ELISA. Briefly, recombinant human VEGF121 (R&D Systems, Minneapolis, Minn., USA) is coated overnight at 4° C. at 1 μg/mL in a 96-well MaxiSorp plate (Nunc, Wiesbaden, Germany). Wells are blocked with a casein solution (1% in PBS).

[11] = biological target: T10, recombinant human VEGF165; assay: Biacore, periplasmic extract on hVEGF165 chip, two phase decay fit
Method: (§4) Dissociation rates of inhibitory VHHs are analyzed on Biacore (Biacore T100 instrument, GE Healthcare). HBS-EP+ buffer is used as running buffer and experiments are performed at 25° C. […] After immobilization, surfaces are deactivated with 10 min injection of 1M ethanolamine pH8.5. A reference surface is activated and deactivated with respectively EDC/NHS and ethanolamine. Periplasmic extracts of VHHs are injected at a 10-fold dilution in running buffer for 2 min at 45 μl/min and allowed to dissociate for 10 or 15 min. Between different samples, the surfaces are regenerated with regeneration buffer. Data are double referenced by subtraction of the curves on the reference channel and of a blank running buffer injection. […] is evaluated by fitting a two phase decay model in the Biacore T100 Evaluation software v2.0.1.
Target sequence in this assay (P15692 other isoform, or with tags, fused parts or gaps limits assumed): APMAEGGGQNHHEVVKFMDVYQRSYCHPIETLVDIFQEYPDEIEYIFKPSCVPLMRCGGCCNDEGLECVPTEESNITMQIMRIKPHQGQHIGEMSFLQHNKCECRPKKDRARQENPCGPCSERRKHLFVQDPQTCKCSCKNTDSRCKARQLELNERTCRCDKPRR

[12] = biological target: T10, recombinant human VEGF165; assay: Biacore, periplasmic extract on hVEGF165 chip
Method: as §4
Target sequence in this assay (P15692 other isoform, or with tags, fused parts or gaps limits assumed): as above

[13] = biological target: T10, recombinant human VEGF165; assay: hVEGF165/hVEGFR1-Fc competition ELISA
human VEGF-C = biological target: T5, human VEGF-C; assay: solid phase binding ELISA
Method: (§5) Binding to VEGFB, VEGFC, VEGFD and PIGF is assessed via a solid phase binding ELISA. In brief, VEGFB, VEGFC, VEGFD and PIGF (R&D Systems, Minneapolis, Minn., USA) are coated overnight at 4° C. at 1 μg/mL in a 96-well MaxiSorp plate (Nunc, Wiesbaden, Germany). Wells are blocked with a casein solution (1% in PBS). […] As positive controls serial dilutions of the appropriate receptors are taken along and detected with horseradish peroxidase (HRP)-conjugated goat anti-human IgG, Fc specific antibody (Jackson Immuno Research Laboratories Inc., West Grove, Pa., USA) and a subsequent enzymatic reaction in the presence of the substrate TMB (3,3′,5,5′-tetramentylbenzidine) (Pierce, Rockford, Ill., USA).

human VEGF-B = biological target: T6, human VEGF-B; assay: solid phase binding ELISA
Method: as §5

human VEGF-D = biological target: T7, human VEGF-D; assay: solid phase binding ELISA
Method: as §5

human PIGF = biological target: T8, human PIGF; assay: solid phase binding ELISA
Method: as §5

[14] = biological target: T10, recombinant human VEGF165; assay: hVEGF165/hVEGFR2-Fc competition ELISA
hAng2 [15] = biological target: T2, hAng2; assay: competition ELISA, blocking of hAng2 binding to hTie2
mAng2 [16] = biological target: T1, mAng2; assay: competition ELISA, blocking of mAng2 binding to mTie2

% inhibition [3] [%]	IC50 [3] [pM]	% inhibition [4] [%]	IC50 [4] [pM]	kon [5] [M⁻¹ s⁻¹]	% inhibition, VEGF HUVEC proliferation assay (VEGF) [%]	IC50 (nM), VEGF HUVEC proliferation assay (VEGF) [nM]	Kd [6] [pM]	kd2 [6] [s⁻¹]	koff [7] [s⁻¹]	binding result [8]	EC50 [9] [pM]	EC50 [10] [pM]	% fast [11] [%]	Binding level (RU) [12] [RU]	% inhibition [13] [%]	IC50 [13] [pM]	binding result (human VEGF-C)	binding result (human VEGF-B)	binding result (human VEGF-D)	Binder	also measured
–	–	–	–	–	–	–	–	–	–	–	–	–	–	–	–	–	–	–	–	1D01 (VHH, also called 01D01) VHH: EVQLVESGGGLVQAGGSLRLSCAASGFTFDDYALGWFRQAAGKEREGVSCIRCSDGSTYYADSVKGRFTISSDNAKNTVYLQMNSLKPEDTAVYYCAASIVPRSKLEPYEYDAWGQGTQVTVSS	IC50 (read off the curve) (cAng2): ~8000 pM; IC50 (read off the curve) (mAng2 [1]): ~20000 pM; IC50 (read off the curve) (hAng2 [2]): ~10000 pM
46	400	100	250	420000	73	4.29	700	0.0001	0.057	no binding (tested: 500 nM-32 pM)	531	928	13	547	55	900	no binding (tested: 500 nM-32 pM)	no binding (tested: 500 nM-32 pM)	no binding (tested: 500 nM-32 pM)	VEGFBII23A06 (VHH, also called 23A6; VEGFBII23A6) VHH: EVQLVESGGGLVQPGDSLKLSCAFSGRTFSSYSMGWFRQAQGKEREFVVAISSGGFIYDAVSLEGRFTISRDNTKNTVYLQTPSLKPEDTAVYYCAASRAYGSSRLRLADTYDYWGQGTQVTVSS	binding result (human PIGF): no binding (tested: 500 nM-32 pM); % inhibition [14]: 100%; IC50 [14]: 3000 pM
53	200	100	250	320000	79	3.8	400	9.6e-05	0.026	no binding (tested: 500 nM-32 pM)	453	792	17	456	71	800	no binding (tested: 500 nM-32 pM)	no binding (tested: 500 nM-32 pM)	no binding (tested: 500 nM-32 pM)	VEGFBII24C04 (VHH, also called VEGFBII24C4) VHH: EVQLVESGGGLVQPGDSLKLSCVASGRTSSSYSMGWFRQAQGKEREFVVAISSGGYIYDSVSLQGRFTISRDNTKNTVYLQTPSLKPEDTAVYYCAASRAYGSSRLRLADTYDYWGQGTQVTVSS	binding result (human PIGF): no binding (tested: 500 nM-32 pM); % inhibition [14]: 100%; IC50 [14]: 2500 pM
–	–	–	–	–	–	–	–	–	–	–	–	–	–	–	–	–	–	–	–	ANGBII00005 (VHH, homodimeric anti-Ang2 VHH; also called 00027-40gs-00027) bivalent VHH: EVQLVESGGGLVQAGGSLRLSCAASGFTLDDYAIGWFRQAPGKEREGVSSIRDNDGSTYYADSVKGRFTISSDNDKNTVYLQMNSLKPEDTAVYYCAAVPAGRLRFGEQWYPLYEYDAWGQGTLVTVSSGGGGSGGGGSGGGGSGGGGSGGGGSGGGGSGGGGSGGGGSEVQLVESGGGLVQAGGSLRLSCAASGFTLDDYAIGWFRQAPGKEREGVSSIRDNDGSTYYADSVKGRFTISSDNDKNTVYLQMNSLKPEDTAVYYCAAVPAGRLRFGEQWYPLYEYDAWGQGTLVTVSS	IC50 (read off the curve) (hAng2 [15]): ~10 pM; IC50 (read off the curve) (mAng2 [16]): ~30 pM
